Target: IgG4 Fc fragment SEQ ID NO: 102, no modification (Homo sapiens (Human)) [IgG part: P01861]
Assay: SEC peak area ratio; coexpression of full-length heavy chain, light chain and Fc fragment

Chain of IgG4 Fc fragment SEQ ID NO: 102, no modification (Homo sapiens (Human)) [IgG part: P01861] (P01861 other isoform, or with tags, fused parts or gaps limits assumed): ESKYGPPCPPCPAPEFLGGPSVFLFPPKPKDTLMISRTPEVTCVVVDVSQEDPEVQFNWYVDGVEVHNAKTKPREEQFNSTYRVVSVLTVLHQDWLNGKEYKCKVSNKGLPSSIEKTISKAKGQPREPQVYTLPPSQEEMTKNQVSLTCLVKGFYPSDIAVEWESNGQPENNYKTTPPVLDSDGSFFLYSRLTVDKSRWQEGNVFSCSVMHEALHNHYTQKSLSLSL

Q: “IgG4 full-length heavy chain SEQ ID NO: 110 with Q347E/S354Y/T366Y/Y407T, expressed with light chain SEQ ID NO: 61 (antibody)” was tested. Which Heteromultimer (%) did it give?
A: Its Heteromultimer (%) is 4.6%.
